Biological target: T1, PD-L1蛋白 (human, UniProt Q9NZQ7 19-238, limits assumed)
T1 construct: also called 人PD-L1蛋白; CD274
Test: competition ELISA: PD-L1 coated, biotinylated PD-1 at 1 ug/mL as competitor, HRP-streptavidin read-out

T1 sequence (Q9NZQ7 19-238 limits assumed): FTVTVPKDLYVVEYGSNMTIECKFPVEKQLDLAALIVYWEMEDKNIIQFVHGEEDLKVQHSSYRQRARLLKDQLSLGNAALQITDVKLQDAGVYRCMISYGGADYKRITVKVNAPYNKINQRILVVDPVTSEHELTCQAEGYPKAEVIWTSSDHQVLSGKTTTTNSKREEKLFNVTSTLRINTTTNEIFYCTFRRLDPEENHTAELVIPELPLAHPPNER

B1: 13H6D3 (antibody, V domains shown)
VH: QVQLQQPGADLVKPGASVKLSCKASGYTFTSNWMHWMKQRPGQGLDWIGMIHPNSAIKYNEKFKSRASLTADKSSSTAYMQLSSLTSEDSAVYYCARSYYGSSPYFFDYWGQGTTLTVSS
VL: DIQMTQTTSSLSASLGDRVTISCRASQDISKYLNWYQQKPDGTVKFLIYYTSRLHSGVPARFSGSGSGTDYFLTISNLEQEDVATYFCQQGDTLPWTFGGGTKLEIK
notes: Only variable domains are tied to the name; also called 克隆 13H6D3
With B1 the IC50 was 1.23 nM.
